Measured values: patent US6750197B1, “Activators of endothelial nitric oxide synthase” (Rensselaer Polytechnic Institute, priority 1996, dated 2004)

How the values were obtained:
[1] = molecular target: NNOS (Rattus norvegicus, UniProt P29476); assay: CAM binding: radiolabeled CAM trapped on a membrane by NNOS adhesion; conditions: no peptide: 774 ± 40
Description: (§1) JX series polypeptides are approximately 30-mers derived from ENOS and NNOS inhibitory polypeptides. B058 series are shorter (6-mers to 15-mers) peptides derived from flanking loops or from shorter segments of inhibitory polypeptides. CAM binding data represents counts from radiolabeled CAM trapped on a membrane by NNOS adhesion. INOS activity was assayed by measuring oxidation of ferrous myoglobin by product NO.

[2] = molecular target: INOS (Rattus norvegicus, UniProt Q06518); assay: INOS activity by oxidation of ferrous myoglobin by product NO; type: biochemical; design: unit not given here; conditions: for INOS Activity 0.1 mg/ml: peptide 0.1 mg/ml, no peptide: 14.9 ± .56; for INOS activity 0.3 mg/ml: peptide 0.3 mg/ml, no peptide: 12.3 ± .19; for INOS Activity 1.0 mg/ml: peptide 1.0 mg/ml, no peptide: 13.0 ± .23
Description: as §1

[3] = molecular target: T1, recombinant bovine ENOS (Bos taurus, UniProt P29473); assay: NOS activity, kinetic 96-well microtiter plate assay, NADPH consumption; type: biochemical; conditions: mean ± SEM, triplicate
T1 construct: made in house; host or cells: E. coli
T1 sequence (P29473 1-1205): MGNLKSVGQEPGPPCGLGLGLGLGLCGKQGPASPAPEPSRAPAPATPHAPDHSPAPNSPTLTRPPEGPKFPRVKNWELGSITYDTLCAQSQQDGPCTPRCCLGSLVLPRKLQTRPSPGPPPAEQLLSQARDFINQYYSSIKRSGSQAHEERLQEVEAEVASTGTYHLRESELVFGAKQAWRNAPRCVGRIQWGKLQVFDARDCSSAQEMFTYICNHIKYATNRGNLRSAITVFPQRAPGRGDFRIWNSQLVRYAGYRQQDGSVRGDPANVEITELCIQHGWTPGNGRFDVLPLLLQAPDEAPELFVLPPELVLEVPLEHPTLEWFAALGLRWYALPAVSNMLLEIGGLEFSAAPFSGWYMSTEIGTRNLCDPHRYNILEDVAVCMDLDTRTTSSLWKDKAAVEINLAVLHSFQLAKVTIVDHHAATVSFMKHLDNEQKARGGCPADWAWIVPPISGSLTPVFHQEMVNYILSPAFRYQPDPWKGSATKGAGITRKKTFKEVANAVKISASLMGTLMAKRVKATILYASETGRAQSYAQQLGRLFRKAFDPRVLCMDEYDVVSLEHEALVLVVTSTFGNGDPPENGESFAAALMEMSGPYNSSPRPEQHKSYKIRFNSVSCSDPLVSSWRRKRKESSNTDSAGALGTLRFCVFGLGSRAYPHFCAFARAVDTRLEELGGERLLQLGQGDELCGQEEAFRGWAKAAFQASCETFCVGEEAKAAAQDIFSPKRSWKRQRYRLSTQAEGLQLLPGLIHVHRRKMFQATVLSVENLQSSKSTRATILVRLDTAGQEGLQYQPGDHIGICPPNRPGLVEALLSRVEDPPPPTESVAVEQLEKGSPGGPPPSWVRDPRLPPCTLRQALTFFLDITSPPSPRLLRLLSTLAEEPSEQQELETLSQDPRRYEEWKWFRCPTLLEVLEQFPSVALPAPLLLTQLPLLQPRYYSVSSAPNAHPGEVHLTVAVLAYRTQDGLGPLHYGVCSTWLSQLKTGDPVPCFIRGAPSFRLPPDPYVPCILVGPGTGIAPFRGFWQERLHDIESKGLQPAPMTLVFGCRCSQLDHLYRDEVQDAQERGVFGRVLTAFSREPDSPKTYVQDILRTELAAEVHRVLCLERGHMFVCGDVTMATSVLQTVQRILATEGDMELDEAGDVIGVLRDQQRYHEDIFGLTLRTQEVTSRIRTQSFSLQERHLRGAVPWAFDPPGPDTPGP
Description: (§2) NOS activity measurements were performed using recombinant rat NNOS (purified from overexpressing HEK293 cells), recombinant bovine ENOS (purified from overexpressing E. coli) or native INOS (from immunostimulant-activated rat aortic smooth muscle cells). Activity was determined with 1-20 pmole of NOS using a kinetic 96-well microtiter plate assay based on the kinetics of NADPH consumption (NNOS and ENOS) or Fe^2+-myoglobin oxidation. Radioligand binding was performed after incubation of 1-2 pmole of NOS for 15 minutes at 23° C. with either Bolton-Hunter labelled [125I]-calmodulin (1 nM) or [3H]-N-nitro-L-arginine (200 pM) and the indicated peptides. Values are means ±SEM of triplicate determinations.

[4] = molecular target: T2, recombinant rat NNOS (Rattus norvegicus, UniProt P29476); assay: as above; type: biochemical; conditions: mean ± SEM, triplicate
T2 construct: made in house; host or cells: HEK293 cells
T2 sequence (P29476 whole entry): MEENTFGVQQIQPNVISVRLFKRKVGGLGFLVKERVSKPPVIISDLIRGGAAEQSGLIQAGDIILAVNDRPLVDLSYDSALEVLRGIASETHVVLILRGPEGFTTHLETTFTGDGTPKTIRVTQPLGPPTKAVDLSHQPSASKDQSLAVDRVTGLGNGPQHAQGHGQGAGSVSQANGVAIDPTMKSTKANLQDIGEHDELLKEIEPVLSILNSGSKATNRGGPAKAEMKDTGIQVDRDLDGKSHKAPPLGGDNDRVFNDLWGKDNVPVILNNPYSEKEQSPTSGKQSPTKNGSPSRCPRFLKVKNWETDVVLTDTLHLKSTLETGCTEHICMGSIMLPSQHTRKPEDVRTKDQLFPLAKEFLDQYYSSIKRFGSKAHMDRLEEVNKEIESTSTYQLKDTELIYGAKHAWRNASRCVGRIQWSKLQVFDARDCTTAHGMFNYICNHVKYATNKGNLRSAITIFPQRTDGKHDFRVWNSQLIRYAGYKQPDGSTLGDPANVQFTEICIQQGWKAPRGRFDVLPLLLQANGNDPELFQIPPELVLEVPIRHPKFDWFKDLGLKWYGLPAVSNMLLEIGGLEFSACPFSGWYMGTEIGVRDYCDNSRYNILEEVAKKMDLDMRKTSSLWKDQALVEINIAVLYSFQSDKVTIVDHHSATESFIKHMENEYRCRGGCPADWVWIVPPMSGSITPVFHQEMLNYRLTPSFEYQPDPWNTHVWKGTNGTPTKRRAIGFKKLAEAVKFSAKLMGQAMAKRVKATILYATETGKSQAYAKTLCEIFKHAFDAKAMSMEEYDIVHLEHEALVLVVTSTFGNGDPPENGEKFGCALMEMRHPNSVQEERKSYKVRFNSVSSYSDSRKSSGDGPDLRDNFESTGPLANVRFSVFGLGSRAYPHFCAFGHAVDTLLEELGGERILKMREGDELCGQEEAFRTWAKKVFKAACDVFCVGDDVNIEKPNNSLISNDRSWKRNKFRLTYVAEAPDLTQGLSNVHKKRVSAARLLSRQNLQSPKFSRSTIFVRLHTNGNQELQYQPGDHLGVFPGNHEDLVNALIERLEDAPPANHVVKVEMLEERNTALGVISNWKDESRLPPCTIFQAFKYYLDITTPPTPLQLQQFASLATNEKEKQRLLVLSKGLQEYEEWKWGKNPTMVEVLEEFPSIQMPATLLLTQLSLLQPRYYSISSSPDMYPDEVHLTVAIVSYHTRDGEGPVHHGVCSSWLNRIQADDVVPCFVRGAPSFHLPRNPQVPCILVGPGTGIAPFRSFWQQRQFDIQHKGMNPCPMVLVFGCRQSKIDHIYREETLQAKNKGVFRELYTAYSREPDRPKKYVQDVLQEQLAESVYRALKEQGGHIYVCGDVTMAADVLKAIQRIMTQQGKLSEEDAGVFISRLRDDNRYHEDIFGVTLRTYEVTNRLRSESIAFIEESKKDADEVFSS
Description: as §2

[5] = molecular target: T3, native INOS (from immunostimulant-activated rat aortic smooth muscle cells) (Rattus norvegicus, UniProt Q06518); assay: NOS activity, kinetic 96-well microtiter plate assay, Fe2+-myoglobin oxidation; type: biochemical; conditions: mean ± SEM, triplicate
T3 construct: endogenous in cells
Description: as §2

[6] = tested on: NOS; assay: Radioligand binding of [3H]-N-nitro-L-arginine to NOS; design: scale not given here; conditions: ligand 200 pM, 15 minutes at 23° C., mean ± SEM
Description: as §2

[7] = tested on: NOS; assay: Radioligand binding of [125I]-calmodulin to NOS; design: scale not given here; conditions: ligand 1 nM, 15 minutes at 23° C., mean ± SEM
Description: as §2

NNOS, sequence (P29476 whole entry): as above

Substance | NNOS CAM Binding [1] | INOS Activity 0.1 mg/ml [2] | INOS activity 0.3 mg/ml [2] | NOS Activity (% of control) ENOS ([3]; peptide 100 μg/ml) | NOS Activity (% of control) NNOS ([4]; peptide 100 μg/ml) | NOS Activity (% of control) INOS ([5]; peptide 100 μg/ml) | Ligand binding to NOS [3H]-NHA ([6]; peptide 100 μg/ml) | Ligand binding to NOS [125I]-CAM ([7]; peptide 100 μg/ml) | INOS Activity 1.0 mg/ml [2] | NOS Activity (% of control) ENOS ([3]; peptide 300 μg/ml) | NOS Activity (% of control) NNOS ([4]; peptide 300 μg/ml) | NOS Activity (% of control) INOS ([5]; peptide 300 μg/ml) | Ligand binding to NOS [3H]-NHA ([6]; peptide 300 μg/ml) | Ligand binding to NOS [125I]-CAM ([7]; peptide 300 μg/ml)
AVDTLLEELGGERT [BO58-02, 22] | 953 ± 80 counts | 15.1 ± .03 | – | – | – | – | – | – | – | – | – | – | – | –
AVDTRLEELGGERT [BO58-01, 35] | 986 ± 58 counts | 15.0 ± .73 | – | – | – | – | – | – | – | – | – | – | – | –
DDVVSLEHET [BO58-04, 24] | 903 ± 57 counts | 15.8 ± .73 | 14.9 ± .56 | – | – | – | – | – | – | – | – | – | – | –
DIDQKLSHLGASQT [BO58-03, 23] | 863 ± 19 counts | 14.4 ± .27 | – | – | – | – | – | – | – | – | – | – | – | –
DIVHLEHES [BO58-05, 25] | 952 ± 52 counts | 14.6 ± .03 | – | – | – | – | – | – | – | – | – | – | – | –
KASTLEEEQ [BO58-06, 26] | 951 ± 100 counts | 15.3 ± .32 | – | – | – | – | – | – | – | – | – | – | – | –
QEERKSYKVRF [BO58-09, 16] | 686 ± 43 counts | 14.7 ± .28 | – | 93.6 ± 2.3 % of control | 102.0 ± 2.1 % of control | 101.1 ± 3.7 % of control | 118.9 ± 4.1 | 82.7 ± 1.1 | – | – | – | – | – | –
QEERKSYKVRFNSVSSYSDSQKSSGDGPDL [JX4, 19] | 659 ± 41 counts | 14.1 ± .57 | 10.4 ± .57 | – | – | – | – | – | 8.4 ± .57 | 80.2 ± 3.8 % of control | 103.0 ± 1.3 % of control | 84.1 ± 3.5 % of control | 95.7 ± 4.7 | 82.7 ± 1.1
QHKSYKIRFNSVSCSDPLVSSWRRKRKE [JX3, 15] | 674 ± 100 counts | 12.9 ± .32 | 7.9 ± .11 | – | – | – | – | – | 2.9 ± .32 | 40.2 ± 4.0 % of control | 28.2 ± 0.9 % of control | 64.3 ± 3.2 % of control | 122.4 ± 1.0 | 0.0 ± 4.8
RPEQHKSYKIRF [BO58-10, 17] | 1339 ± 49 counts | 14.6 ± .02 | – | 80.5 ± 2.0 % of control | 54.5 ± 1.8 % of control | 99.7 ± 5.7 % of control | 115.0 ± 8.6 | 24.7 ± 2.2 | – | – | – | – | – | –
SDSRKSSGDGPDLR [BO58-11, 18] | 908 ± 56 counts | 14.7 ± .94 | – | 102.6 ± 4.1 % of control | 98.4 ± 1.9 % of control | 99.7 ± 2.8 % of control | 119.2 ± 3.4 | 89.2 ± 6.2 | – | – | – | – | – | –
SSPRPEQHKSYKIRFNSVSCSDPLVSSWRRKRKESS [JX2, 14] | 1356 ± 46 counts | 13.1 ± .11 | 7.7 ± .11 | – | – | – | – | – | 3.2 ± .11 | 57.2 ± 7.5 % of control | 30.4 ± 1.7 % of control | 62.2 ± 2.8 % of control | 116.3 ± 1.9 | 0.0 ± 7.4
WRRKRK [BO58-07, 12] | 1749 ± 40 counts | 13.6 ± .31 | – | 24.0 ± 2.8 % of control | 11.0 ± 3.3 % of control | 91.1 ± 5.7 % of control | 91.7 ± 5.1 | 6.7 ± 3.6 | – | – | – | – | – | –
